# Source: the RNAGym collection of RNA variant scans (doi:10.7554/elife.90254)
# B1: LINE1-full (parent)
# chain: UACGUAGGUGGUUUUCCCCUGAUAGUGCUAAGGGGGCCUGGAAGUUUGGACUGGGCAGAGCUCAACACAGCGUGGCAAAGUGGCUGUGGCUAGACUGCCUCUCUGGAUUCCUCGUCACUCAGCAGGGCAUCUCUGAGAGAAAUGCC
# Variants of: B1
# Assay: self-cleavage, relative activity (ratio to wild type); higher = more cleavage; in vitro, sequencing; the parent is a self-cleaving ribozyme
row,Variant,self-cleavage
1,UACGUAGGUGGUUUUCCCCUGAUAGUGCUAAGGGGGCCUGGAAGUUUGGACUGGGCAGAGCUCAACACAGCGAGGCAAAGUGGCUGUGGCUAGACUGCCUCUCUGGAUUCCUCGUCACUCAGCAGGGCAUCUCUGAGAGAGAUGCC,1.74
2,UACGUAGGUGGUUUUCCCCUGAUAGUGCUAAGGGGGCCUGGAAGUUUGGACUGGGCAGAGCUCAACACAGCGAGGCAAAGUGGCUGUGGCUAGACUGCCUCUCUGGAUUCCUCGUCACUCAGCAGGGCAUCUCUGAGAGAAGUGCC,1.57
3,UACGUAGGUGGUUUUCCCCUGAUAGUGCUAAGGGGGCCUGGAAGUUUGGACUGGGCAGAGCUCAACACAGCGAGGCAAAGUGGCUGUGGCUAGACUGCCUCUCUGGAUUCCUCGUCACUCAGCAGGGCAUCUCUGAGAGAAUUGCC,1.41
4,UACGUAGGUGGUUUUCCCCUGAUAGUGCUAAGGGGGCCUGGAAGUUUGGACUGGGCAGAGCUCAACACAGCGAGGCAAAGUGGUUGUGGCUAGACUGCCUCUCUGGAUUCCUCGUCACUCAGCAGGGCAUCUCUGAGAGAAAUGCC,0.16
5,UACGUAGGUGGUUUUCCCCUGAUAGUGCUAAGGGGGCCUGGAAGUUUGGACUGGGCAGAGCUCAACACAGCGAGGCAAAGUGGCUGUGGCUAGAGUGCCUCUCUGGAUUCCUCGUCACUCAGCAGGGCAUCUCUGAGAGAAAUGCC,0.06
6,UACGUAGGUGGUUUUCCCCUGAUAGUGCUAAGGGGGCCUGGAAGUUUGGACUGGGCAGAGCUCAACACAGCGAGGCAAAGUGGCUGUGGCUAGACUGCAUCUCUGGAUUCCUCGUCACUCAGCAGGGCAUCUCUGAGAGAAAUGCC,0.92
7,UACGUAGGUGGUUUUCCCCUGAUAGUGCUAAGGGGGCCUGGAAGUUUGGACUGGGCAGAGCUCAACACAGCGAGGCAAAGUGGCUGUGGCUAGACUGCCUUUCUGGAUUCCUCGUCACUCAGCAGGGCAUCUCUGAGAGAAAUGCC,2.61
8,UACGUAGGUGGUUUUCCCCUGAUAGUGCUAAGGGGGCCUGGAAGUUUGGACUGGGCAGAGCUCAACACAGCGAGGCAAAGUGGCUGUGGCUAGACUGCCUCUCUGGAUUCUUCGUCACUCAGCAGGGCAUCUCUGAGAGAAAUGCC,1.54
9,UACGUAGGUGGUUUUCCCCUGAUAGUGCUAAGGGGGCCUGGAAGUUUGGACUGGGCAGAGCUCAACACAGCGAGGCAAAGUGGCUGUGGCUAGACUGCCUCUCUGGAUUCCUUGUCACUCAGCAGGGCAUCUCUGAGAGAAAUGCC,1.41
10,UACGUAGGUGGUUUUCCCCUGAUAGUGCUAAGGGGGCCUGGAAGUUUGGACUGGGCAGAGCUCAACACAGCGAGGCAAAGUGGCUGUGGCUAGACUGCCUCUCUGGAUUCCUCGUCAUUCAGCAGGGCAUCUCUGAGAGAAAUGCC,1.25
11,UACGUAGGUGGUUUUCCCCUGAUAGUGCUAAGGGGGCCUGGAAGUUUGGACUGGGCAGAGCUCAACACAGCGAGGCAAAGUGGCUGUGGCUAGACUGCCUCUCUGGAUUCCUCGUCACUUAGCAGGGCAUCUCUGAGAGAAAUGCC,1.79
12,UACGUAGGUGGUUUUCCCCUGAUAGUGCUAAGGGGGCCUGGAAGUUUGGACUGGGCAGAGCUCAACACAGCGAGGCAAAGUGACUGUGGCUAGACUGCCUCUCUGGAUUCCUCGUCACUCAGCAGGGCAUCUCUGAGAGAAAUGCC,0.53
13,UACGUAGGUGGUUUUCCCCUGAUAGUGCUAAGGGGGCCUGGAAGUUUGGACUGGGCAGAGCUCAACACAGCGAGGCAAAGUGGCUGUGGCUAUACUGCCUCUCUGGAUUCCUCGUCACUCAGCAGGGCAUCUCUGAGAGAAAUGCC,0.03
14,UACGUAGGUGGUUUUCCCCUGAUAGUGCUAAGGGGGCCUGGAAGUUUGGACUGGGCAGAGCUCAACACAGCGAGGCAAAGUGGCUGUGGCUAGACUACCUCUCUGGAUUCCUCGUCACUCAGCAGGGCAUCUCUGAGAGAAAUGCC,0.11
15,UACGUAGGUGGUUUUCCCCUGAUAGUGCUAAGGGGGCCUGGAAGUUUGGACUGGGCAGAGCUCAACACAGCGAGGCAAAGUGGCUGUGGCUAGACUGCCUCUCUAGAUUCCUCGUCACUCAGCAGGGCAUCUCUGAGAGAAAUGCC,2.29
16,UACGUAGGUGGUUUUCCCCUGAUAGUGCUAAGGGGGCCUGGAAGUUUGGACUGGGCAGAGCUCAACACAGCGAGGCAAAGUGGCUGUGGCUAGACUGCCUCUCUGGAUUCCUCGUCACUCAGCAAGGCAUCUCUGAGAGAAAUGCC,1.92
17,UACGUAGGUGGUUUUCCCCUGAUAGUGCUAAGGGGGCCUGGAAGUUUGGACUGGGCAGAGCUCAACACAGCGAGGCAAAGUGGCUGUGGCUAGACUGCCUCUCUGGAUUCCUCGUCACUCAGCAGGACAUCUCUGAGAGAAAUGCC,1.58
18,UACGUAGGUGGUUUUCCCCUGAUAGUGCUAAGGGGGCCUGGAAGUUUGGACUGGGCAGAGCUCAACACAGCGAGGCAAAGUGGCUGUGGCUAGACUGCCUCUCUGGAUUCCUCGUCACUCAGCAGGGCAUCUCUGAAAGAAAUGCC,1.7
19,UACGUAGGUGGUUUUCCCCUGAUAGUGCUAAGGGGGCCUGGAAGUUUGGACUGGGCAGAGCUCAACACAGCGAGGCAAAGUGGCUGUGGCUAGACUGCCUCUCUGGAUUCCUCGUCACUCAGCAGGGCAUCUCUGAGAGAAAUACC,1.4
20,UACGUAGGUGGUUUUCCCCUGAUAGUGCUAAGGGGGCCUGGAAGUUUGGACUGGGCAGAGCUCAACACAGCGAGGCAAAGUGGCUGAGGCUAGACUGCCUCUCUGGAUUCCUCGUCACUCAGCAGGGCAUCUCUGAGAGAAAUGCC,0.07
